From WO2001072771A2
No end group written: not given here.

Columns and labels:
[1] = target: soluble IGF-1 receptor (human) (UniProt P08069); test: phage ELISA
[2] = target: soluble human insulin receptor (IR-Fc) (human) (UniProt P06213); test: phage ELISA

Row | Binder | ratio over background [1] | ratio over background [2]
1 | YRGMLVLGRSSDGAGKVAFERPARIGQTVFAVNFYDWFV [A6L-0-E6-IR] | 31 | 
2 | SSYGCDGFYLMLFSLGLVASQELEC [20C-3-A1-IGFR] | 20.8 | 
3 | YSCGDGFYSLLSDLLGGQFRC [20E2B-4-H12-IGFR] | 9.7 | 0.8
4 | RGMKEEVLVGGSTDPFYHKLSELLQGS [B6Hα-3-F11-IR] | 18.7 | 
5 | VGYQGQGDENFYDWFIRQVSGRLGVQ [H2CA-4-F5-IGFR] | 9.7 | 0.8
6 | GGTEVDFYRALERLVRGQLGL [20E2B-3-D8-IGFR] | 17.7 | 
7 | DRAFYNGLRDLVGAVYGAWD [R20 -4-20C11-IR] | 30.8 | 3
8 | PVGVQGFYEGLSRLVLGRGGW [20E2B-4-F8-IGFR] | 7.3 | 0.8
9 | RFSTDGFYQYLLALVGGGPVG [20E2B-1-A11-IGFR] | 9.5 | 1
10 | NSRDGGFYLQLERLLGFPVTG [20E2B-3-D4-IGFR] | 7.9 | 0.8
11 | QPAPDGFYSALMKLIGRGGVS [20E2B-3-C8-IGFR] | 15.6 | 
12 | AQPCGGFYGLLEQLVGRSVCD [20E2B-4-F10-IGFR] | 17.3 | 2.2
13 | QPDHSYFYSLLQELVGSEERL [20E2B-4-F9-IGFR] | 14.7 | 
14 | ICTGQGFYQVLCGLLRGTSAR [20E2B-2-B3-IGFR] | 5.3 | 0.7
15 | QGNVLDFYGWIGRLLAKQGSD [20E2B-3-D12-IGFR] | 6.2 | 0.9
16 | VATSQGFYSGLSELLQGGGNV [20E2B-3-E12-IGFR] | 6 | 0.8
17 | IWATGDFYRLLSQLVMGRVGT [20E2B-2-B8-IGFR] | 5.7 | 0.8
18 | EGSGFYGYFFSLLGLQG [NNRPγ-4-A9-IR] | 10 | 1.4
19 | RQGTGSFYLMLEQLLVGARGP [20E2B-4-G11-IGFR] | 4.5 | 0.6

Row | Binder | ratio over background [1] | ratio over background [2]
20 | DSVGDNFYQLLESLVGGHGVG [20E2B-3-D6-IGFR] | 17.8 | 2.6
21 | LSSDGQFYRANLLLQGSAGR [20E2B-2-B7-IGFR] | 6.1 | 0.9
22 | ASSASGFYELLQRLAGLGLEV [20E2B-3-C4-IGFR] | 20.4 | 3.3
23 | FFYRCLSRLLGGQLGSRLGLSCIGD [20C-3-E4-IGFR] | 7.7 | 1.3
24 | IIGGFYSYFNSVLRLGT [NNRPγ-4-A1-IR] | 10.9 | 
25 | PAGPCGFYCGLGLLLHGDQSP [20E2B-4-H8-IGFR] | 5.3 | 0.9
26 | RCQGTGFYTCIQELIGFGDPD [20E2B-4-H9-IGFR] | 5.2 | 0.9
27 | AVRATRFDEAFYDWFVRQISDGQGNK [H2CA-4-F6-IGFR] | 7.3 | 1.1
28 | SGAKVIWTGDSGDPFYHKLSELLQGS [B6Hα-2-C10-IR] | 5.8 | 1.1
29 | VGTVAGFYDAIAQLVARASRV [20E2A-3-C7-IGFR] | 5.4 | 1.1
30 | RFDPFYSYFVNLLGASA [NNRPγ-4-A7-IR] | 6.3 | 1.3
31 | RGKTAAVIVGRPADPFYHKLSELLQGG [B6Hα-3-E8-IR] | 5.3 | 1.1
32 | GCWEWQKWHGASDPFYHKLSELGGCS [B6Hα-3-F10-IR] | 8.8 | 
33 | LSVALSFYDALGQLVAGEGRW [20E2A-3-A12-IGFR] | 4.3 | 
34 | GGTKAVAKVGTRDDPFYHKLSELLQGS [B6Hα-4-G8-IR] | 6.1 | 
35 | SRAKVEAEMPDSGDPFYHKLSELLASG [B6Hα-1-A3-IR] | 2.6 | 0.8
36 | VNQSGSIHENFYDWFERQVSHQRGVR [H2CA-4-F10-IGFR] | 5.7 | 1
37 | SRVAATKEKRPSDDPFYHKLSELLQGS [B6Hα-3-F7-IR] | 3.1 | 
38 | GCITAENGAGDPFYHKLSELGGCS [B6Hα-1-B3-IR] | 3.2 | 

Row | Binder | ratio over background [1] | ratio over background [2]
39 | NVFVSFYDAIDQLVCQRIGC [20E2A-4-G11-IGFR] | 3.3 | 
40 | AGSVTSFYDAMEQLVATGTSA [20E2A-3-A4-IGFR] | 2.5 | 
41 | LSCLAYSRHGIWRPSTDLGLGRSVGEGSVSTRWRGYDWFE [40F-4-D1-IGFR] | 4.6 | 0.3
42 | APDPSDFQEIFYDWFVRQVSRMPGGG [H2CA-1-A3-IGFR] | 3.8 | 0.8
43 | SSCDGAGHESFYEWFVRQVSGCRSV [H2CA-3-C8-IGFR] | 5.6 | 1.2
44 | RAGSSDFHEDFYEWFVRQVSLSLKGK [H2CA-2-B9-IGFR] | 7 | 1.7
45 | QAVQPGFHEEFYDWFVRQVSTGVGGG [H2CA-4-H4-IGFR] | 4.1 | 1
46 | GFREGNFYEWFQAQVT [E4D -4-H2-IR] | 33.9 | 8.2
47 | GIISQSCPESFYDWFAGQVSDPWWCW [H2CA-4-G9-IGF] | 9.5 | 0.6
48 | QSPVGSSHEDFYDWFFRQVAQSGAHQ [H2CA-3-D6-IGFR] | 9 | 2.2
49 | NYRRQVFNGNFYDWFDRQVFSLVTPG [H2CA-3-D8-IGFR] | 7.2 | 1.8
50 | RCGRELYHSTFYDWFDRQVAGRTCPS [H2CA-1-A7-IGFR] | 2.2 | 0.6
51 | CCLLCRFQQNFYDWFVCQGISRLRPL [H2CA-2-B4-IGFR] | 4.1 | 1.1
52 | RGAVAGFHDQFYDWFDRQVSRVHKFG [H2CA-4-H9-IGFR] | 5.6 | 
53 | LGYQEPFQQNFYDWFVRQVSGAENAG [H2CA-3-E8-IGFR] | 6.3 | 2.2
54 | LQPCSGFYECIERLIGVKLSG (not fully specified (bridges); cysteine pairing not given here) [20E2Bβ-4-G7-IR] | 25.2 | 
55 | YRGMVLGRISGGAGKAASERPARIGQKVSAVNFYDWFV [A6L-0-H3-IR] | 26 | 
56 | RCEEKQAEVGPSSDPFYHKMSELLGCR [B6Hα-3-E9-IR] | 24.2 | 
